{"source": "patent US5847082", "about": "“Terminal complement inhibitor fusion proteins” (Alexion Pharmaceuticals, Inc., dated 1998)", "key": {"[1]": {"target": "T1, purified human complement component C8 (human, UniProt P07357)"}, "[2]": {"target": "T2, purified human complement component C9 (human, UniProt P02748)"}, "[3]": {"target": "T1, purified human complement component C8", "assay": "cell-based or functional assay"}, "[4]": {"target": "T2, purified human complement component C9", "assay": "cell-based or functional assay"}}, "note": "Read-outs that look alike come from different tables or passages of the source."}
{"molecule": "CD59-MCP TMTCIP (transmembrane form of CD59)", "values": [{"measurement": "percent dye release (Calcein AM) after complement attack, Balb/3T3 cells", "setting": "[1]", "result": 3, "unit": "fold"}, {"measurement": "percent dye release (Calcein AM) after complement attack, Balb/3T3 cells", "setting": "[2]", "result": 3, "unit": "fold"}]}
{"molecule": "native human CD59, GPI-anchored (other, glycosyl-phosphatidylinositol (GPI) anchor at the carboxyl terminus) LQCYNCPNPTADCKTAVNCSSDFDACLITKAGLQVYNKCWKFEHCNFNDVTTRLRENELTYYCCKKDLCNFNEQLENGGTSLSEKTVLLLVTPFLAAAWSLHP", "values": [{"measurement": "percent dye release (Calcein AM) after complement attack, Balb/3T3 cells", "setting": "[3]", "result": "~3", "unit": "fold"}, {"measurement": "percent dye release (Calcein AM) after complement attack, Balb/3T3 cells", "setting": "[4]", "result": "~3", "unit": "fold"}]}
